Measurements as given in patent US7888372B2, “Compositions and methods for modulating bone mineral deposition” (National Institutes of Health (NIH), priority 2001, dated 2011).

B1: heat-inactivated recombinant TNAP: heat-inactivated recombinant TNAP (protein, UniProt P05186 18-501, looked up)
Alkaline phosphatase, …: LVPEKEKDPKYWRDQAQETLKYALELQKLNTNVAKNVIMFLGDGMGVSTVTAARILKGQLHHNPGEETRLEMDKFPFVALSKTYNTNAQVPDSAGTATAYLCGVKANEGTVGVSAATERSRCNTTQGNEVTSILRWAKDAGKSVGIVTTTRVNHATPSAAYAHSADRDWYSDNEMPPEALSQGCKDIAYQLMHNIRDIDVIMGGGRKYMYPKNKTDVEYESDEKARGTRLDGLDLVDTWKSFKPRYKHSHFIWNRTELLTLDPHNVDYLLGLFEPGDMQYELNRNNVTDPSLSEMVVVAIQILRKNPKGFFLLVEGGRIDHGHHEGKAKQALHEAVEMDRAIGQAGSLTSSEDTLTVVTADHSHVFTFGGYTPRGNSIFGLAPMLSDTDKKPFTAILYGNGPGYKVVGGERENVSMVDYAHNNYQAQSAVPLRHETHGGEDVAVFSKGPMAHLLHGVHEQNYVPHVMAYAACIGANLGHCAPAS
modifications: heat-inactivated
B2: [R54C]TNAP: enzymatically inactive mutant of TNAP (protein, UniProt P05186 18-501, looked up, variant R54C)
Alkaline phosphatase, …: LVPEKEKDPKYWRDQAQETLKYALELQKLNTNVAKNVIMFLGDGMGVSTVTAACILKGQLHHNPGEETRLEMDKFPFVALSKTYNTNAQVPDSAGTATAYLCGVKANEGTVGVSAATERSRCNTTQGNEVTSILRWAKDAGKSVGIVTTTRVNHATPSAAYAHSADRDWYSDNEMPPEALSQGCKDIAYQLMHNIRDIDVIMGGGRKYMYPKNKTDVEYESDEKARGTRLDGLDLVDTWKSFKPRYKHSHFIWNRTELLTLDPHNVDYLLGLFEPGDMQYELNRNNVTDPSLSEMVVVAIQILRKNPKGFFLLVEGGRIDHGHHEGKAKQALHEAVEMDRAIGQAGSLTSSEDTLTVVTADHSHVFTFGGYTPRGNSIFGLAPMLSDTDKKPFTAILYGNGPGYKVVGGERENVSMVDYAHNNYQAQSAVPLRHETHGGEDVAVFSKGPMAHLLHGVHEQNYVPHVMAYAACIGANLGHCAPAS
B3: TNAP: factor expressed in wild-type osteoblastic cells by transfecting the cDNA (Table 1) (protein)
chain: FVPEKERDPSYWRQQAQETLKNALKLQKLNTNVAKNVIMFLGDGMGVSTVTAARILKGQLHHNTGEETRLEMDKFPFVALSKTYNTNAQVPDSAGTATAYLCGVKANEGTVGVSAATERTRCNTTQGNEVTSILRWAKDAGKSVGIVTTTRVNHATPSAAYAHSADRDWYSDNEMPPEALSQGCKDIAYQLMHNIKDIDVIMGGGRKYMYPKNRTDVEYELDEKARGTRLDGLDLISIWKSFKPRHKHSHYVWNRTELLALDPSRVDYLLGLFEPGDMQYELNRNNLTDPSLSEMVEVALRILTKNLKGFFLLVEGGRIDHGHHEGKAKQALHEAVEMDQAIGKAGAMTSQKDTLTVVTADHSHVFTFGGYTPRGNSIFGLAPMVSDTDKKPFTAILYGNGPGYKVVDGERENVSMVDYAHNNYQAQSAVPLRHETHGGEDVAVFAKGPMAHLLHGVHEQNYIPHVMAYASCIGANLDHCAWAG
B4: iPPiase: inorganic pyrophosphatase, factor expressed in wild-type osteoblastic cells (Table 1) (protein, UniProt Q15181 2-289, looked up)
Inorganic pyrophosphatase: SGFSTEERAAPFSLEYRVFLKNEKGQYISPFHDIPIYADKDVFHMVVEVPRWSNAKMEIATKDPLNPIKQDVKKGKLRYVANLFPYKGYIWNYGAIPQTWEDPGHNDKHTGCCGDNDPIDVCEIGSKVCARGEIIGVKVLGILAMIDEGETDWKVIAINVDDPDAANYNDINDVKRLKPGYLEATVDWFRRYKVPDGKPENEFAFNAEFKDKDFAIDIIKSTHDHWKALVTKKTNGKGISCMNTTLSESPFKCDPDAARAIVDALPPPCESACTVPTDVDKWFHHQKN
B5: PC-1: factor expressed in wild-type osteoblastic cells by transfecting the cDNA (Table 1) (protein)
chain: MERDGDQAGHGPRHGSAGNGRELESPAAASLLAPMDLGEEPLEKAERARPAKDPNTYKVLSLVLSVCVLTTILGCIFGLKPSCAKEVKSCKGRCFERTFSNCRCDAACVSLGNCCLDFQETCVEPTHIWTCNKFRCGEKRLSRFVCSCADDCKTHNDCCINYSSVCQDKKSWVEETCESIDTPECPAEFESPPTLLFSLDGFRAEYLHTWGGLLPVISKLKNCGTYTKNMRPMYPTKTFPNHYSIVTGLYPESHGIIDNKMYDPKMNASFSLKSKEKFNPLWYKGQPIWVTANHQEVKSGTYFWPGSDVEIDGILPDIYKVYNGSVPFEERILAVLEWLQLPSHERPHFYTLYLEEPDSSGHSHGPVSSEVIKALQKVDRLVGMLMDGLKDLGLDKCLNLILISDHGMEQGSCKKYVYLNKYLGDVNNVKVVYGPAARLRPTDVPETYYSFNYEALAKNLSCREPNQHFRPYLKPFLPKRLHFAKSDRIEPLTFYLDPQWQLALNPSERKYCGSGFHGSDNLFSNMQALFIGYGPAFKHGAEVDSFENIEVYNLMCDLLGLIPAPNNGSHGSLNHLLKKPIYNPSHPKEEGFLSQCPIKSTSNDLGCTCDPWIVPIKDFEKQLNLTTEDVDDIYHMTVPYGRPRILLKQHHVCLLQQQQFLTGYSLDLLMPLWASYTFLRNDQFSRDDFSNCLYQDLRIPLSPVHKCSYYKSNSKLSYGFLTPPRLNRVSNHIYSEALLTSNIVPMYQSFQVIWHYLHDTLLQRYAHERNGINVVSGPVFDFDYDGRYDSLEILKQNSRVIRSQEILIPTHFFIVLTSCKQLSETPLECSALESSAYILPHRPDNIESCTHGKRESSWVEELLTLHRARVTDVELITGLSFYQDRQESVSELLRLKTHLPIFSQED

Legend:
[1] = system: wild-type osteoblastic cells; test: Predicted effect of factors expressed or delivered on PPi and mRNA expression; assay type: cell-based, mouse
Description: In order to test the hypothesis that PPi itself represents the signaling molecule that influences the transcription of the TNAP, PC-1 and ANK genes, we examine the levels of TNAP, PC-1 and ANK in calvarial tissue and osteoblasts from the mutant mouse lines and in the rescued mouse strains and by measure mRNA for TNAP, PC-1 and ANK by Northern blot analysis. Subsequently, cells from the different mutant strains and rescued mice are exposed to medium with different concentrations of PPi, or non-hydrolyzable analogues (phosphocitrate and the biphosphonate etidronate), for various time points and tested for changes in mRNA levels of the three genes. In addition, in vitro cytoplasmic and nuclear microinjection of PPi and analogues into osteoblastic cells are performed to examine the effect of intracellular PPi on these same genes. Measurements of mRNA changes are monitored by real-time RT-PCR using an ABI 7700 Sequence Detection system to facilitate these measurements.
These evaluations are done on osteoblastic cells from the different mutant mice and cross-bred strains with or without rescue of the deficient molecule after specifically transfecting the respective cDNAs back into the deficient cells. As a control for the transfections, we employ mutant enzyme-deficient PC-1 (Johnson et al., J. Bone Miner. Res. 14:883-892, 1999; Johnson et al., Arthritis Rheum. 42:1986-1997, 1999), mutant ANK (Ho et al., Science 289:265-270, 2000), and mutant enzyme-deficient TNAP (Wennberg et al., J. Bone Mineral Res., 2000). The table summarizes the experiments to be performed and the results that are expected.

TNAP-/- mice = test: Administration of exogenous pyridoxal HCl to TNAP-/- mice; assay type: in vivo, mouse
Description: At the time that we were developing the TNAP knock-out mice, Waymire et al. (Nature Genet. 11:45-51, 1995) independently reported the production of TNAP knock-out mice. […] These studies provided support to the hypothesis, set forth by Michael P. Whyte in his studies of human hypophosphatasia, that pyridoxal-5′-phosphate (vitamin B6) might be a natural substrate of TNAP. The rationale for this hypothesis is that pyridoxal-5′-phosphate cannot easily traverse biological membranes but that the related, more hydrophobic derivatives, pyridoxal and pyridoxamine can do so with much better kinetics. Thus, the presumption is that the cells that are deficient in TNAP cannot dephosphorylate pyridoxal-5′-phosphate on the outside of the cells leading to an intracellular deficiency of Vitamin B6 (Whyte, Endocrine Rev. 15:439-461, 1994). […] Control mice fed a vitamin B6-depleted diet developed epileptic seizures indistinguishable from those observed in TNAP−/− mice, abnormal apoptosis in the thymus and thinning of the nerve roots.

TNAP ko osteoblasts = test: Mineralization of bone nodules in primary TNAP ko osteoblast cultures (von Kossa); assay type: cell-based, mouse; settings: added to the ko osteoblast culture medium
Protocol: Primary cultures of osteoblasts were isolated from calvariae of 1-4 day old pups that were hybrids of C57Bl/6×129/J mouse strains with wild-type, heterozygote and homozygote TNAP null genotypes. Isolation was performed by a slightly modified version of the time sequential collagenase technique described by Boonekamp et al. (Proc. Kon. Ned. Akad. Wet. B87:371-382, 1984). In brief, calvariae of the same genotype were pooled and three 10 minute incubations in 4 mM EDTA, 137 mM NaCl, 2.7 mM KCl, 3 mM NaH2PO4, pH 7.2, were performed, followed by seven 10 minute digestions in EDTA-free buffer, containing 180 units/ml collagenase type II (Worthington Biochemical Corporation, Lakewood, N.J.). All isolations were performed at 37° C. in a shaking water bath. The last five collagenase digestions, containing an enriched cell population of osteoblastic phenotype, were pooled and seeded at 4×10^4 cells/cm^2 in αMEM (Gibco BRL, Grand Island, N.Y.), containing 10% heat-inactivated FCS, penicillin (50 U/ml) and streptomycin ([…]).
To study mineralization, we used conditions under which we observed that osteoblasts normally formed von Kossa stain positive and alizarin red positive nodules at 7-10 days in culture. In brief, primary calvarial osteoblasts were cultured in complete αMEM media as described above, supplemented with β-glycerophosphate (10 mM) every third day and L-ascorbic acid (50 μg/ml) daily. MC3T3-E1 cells (Johnson et al., J. Bone Min. Res. 14:883-892, 1999) were maintained in the same medium, and for each experiment were plated at 80% confluence (1×10^6 cells in a 10 cm tissue-culture plastic dish in 5 ml) and received β-glycerophosphate and L-ascorbic acid as for primary osteoblasts above.
To evaluate the ability of primary osteoblasts to form and mineralize bone nodules in vitro, wild-type (wt), heterozygous and knock-out (ko) osteoblasts were cultured in media supplemented with ascorbic acid, using β-glycerophosphate as phosphate source. […] The extent of bone mineral deposition in these cultures was confirmed by quantifications of deposited calcium. […]

Row | Molecule | Predicted effect on PPi, Extracellular [1] | Predicted effect on PPi, Intracellular [1] | Predicted effect on mRNA expression, ANK [1] | Predicted effect on mRNA expression, TNAP [1] | Predicted effect on mRNA expression, PC-1 [1] | also measured
1 | ANK: factor expressed in wild-type osteoblastic cells by transfecting the cDNA (Table 1) | ⇑ | ↓ | ↓ | ⇑ | – | –
2 | Cc1ncc(CO)c(C=O)c1O.Cl [pyridoxal HCl] | – | – | – | – | – | episodes of apnea (TNAP-/- mice): episodes of apnea ceased; hypomineralization and accumulation of osteoid (TNAP-/- mice): continued to worsen with age; life span (TNAP-/- mice): increased the life span; myelinization of lumbar nerve roots (TNAP-/- mice): improved; onset of epileptic attacks (TNAP-/- mice): delayed the onset of epileptic attacks
3 | B1 | – | – | – | – | – | induction of mineralization (TNAP ko osteoblasts): neither heat-inactivated recombinant TNAP, nor enzymatically inactive mutants of TNAP, such as [R54C]TNAP or [V365I]TNAP, were able to induce mineralization
4 | B2 | – | – | – | – | – | induction of mineralization (TNAP ko osteoblasts): nor enzymatically inactive mutants of TNAP, such as [R54C]TNAP or [V365I]TNAP, were able to induce mineralization
5 | B3 | ↓ | ↓ | ⇑ | – | ⇑ | –
6 | B4 | = | ↓ | ⇑ | ↓ | ⇑ | –
7 | B5 | ⇑ | ⇑ | – | ⇑ | ↓ | –
